Data taken from patent publication US20260049134A1 (UNIVERSITY OF FLORIDA RESEARCH FOUNDATION, published 2026).

T1: ANXA1
T1 construct: coated protein in the ELISA; also called ANXA1-His (R&D Systems)
T1 chain: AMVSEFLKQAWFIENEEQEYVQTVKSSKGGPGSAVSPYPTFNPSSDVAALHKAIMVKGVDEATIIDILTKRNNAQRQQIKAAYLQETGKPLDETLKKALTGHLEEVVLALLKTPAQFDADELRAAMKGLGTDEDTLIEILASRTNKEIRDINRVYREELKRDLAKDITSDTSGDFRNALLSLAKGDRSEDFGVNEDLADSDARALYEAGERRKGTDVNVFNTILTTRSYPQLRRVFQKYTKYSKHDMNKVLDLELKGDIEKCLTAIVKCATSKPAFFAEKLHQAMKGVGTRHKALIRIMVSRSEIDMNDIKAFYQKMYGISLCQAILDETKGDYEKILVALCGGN

T2: PTPRG-Fc (ECD of human PTPRG, aa 20-736, fused to human Fc gamma 1) (human, UniProt P23470 20-736)
T2 construct: Made in-house in Expi293 cells; Used in ELISA and SPR; also called recombinant PTPRG-Fc; PTRPG; not shown: human IgG1 Fc (Fc gamma 1) after the hinge
T2 sequence: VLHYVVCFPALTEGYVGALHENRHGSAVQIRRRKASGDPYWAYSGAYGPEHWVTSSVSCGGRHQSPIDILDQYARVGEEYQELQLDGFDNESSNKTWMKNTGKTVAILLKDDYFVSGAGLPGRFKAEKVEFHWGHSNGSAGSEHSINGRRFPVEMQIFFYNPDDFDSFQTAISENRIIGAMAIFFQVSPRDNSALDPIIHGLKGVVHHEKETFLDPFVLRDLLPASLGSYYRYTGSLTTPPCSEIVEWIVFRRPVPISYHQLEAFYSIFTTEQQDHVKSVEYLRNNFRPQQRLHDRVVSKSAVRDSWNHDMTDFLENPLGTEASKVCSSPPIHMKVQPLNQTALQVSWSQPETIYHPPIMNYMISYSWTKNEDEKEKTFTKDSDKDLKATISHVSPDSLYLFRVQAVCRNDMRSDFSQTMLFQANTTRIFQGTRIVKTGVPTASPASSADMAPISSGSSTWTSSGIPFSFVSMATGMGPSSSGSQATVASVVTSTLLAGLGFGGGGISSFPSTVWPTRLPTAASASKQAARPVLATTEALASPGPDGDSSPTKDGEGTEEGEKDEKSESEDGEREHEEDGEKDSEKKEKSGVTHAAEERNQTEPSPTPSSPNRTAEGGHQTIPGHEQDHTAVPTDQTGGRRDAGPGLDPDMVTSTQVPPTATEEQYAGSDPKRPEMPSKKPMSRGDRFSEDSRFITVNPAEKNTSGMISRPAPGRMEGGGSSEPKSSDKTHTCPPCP

T3: HHLA2 (B7-H7)
T3 construct: coated protein in the ELISA; also called HHLA2-Fc (R&D Systems)
T3 chain: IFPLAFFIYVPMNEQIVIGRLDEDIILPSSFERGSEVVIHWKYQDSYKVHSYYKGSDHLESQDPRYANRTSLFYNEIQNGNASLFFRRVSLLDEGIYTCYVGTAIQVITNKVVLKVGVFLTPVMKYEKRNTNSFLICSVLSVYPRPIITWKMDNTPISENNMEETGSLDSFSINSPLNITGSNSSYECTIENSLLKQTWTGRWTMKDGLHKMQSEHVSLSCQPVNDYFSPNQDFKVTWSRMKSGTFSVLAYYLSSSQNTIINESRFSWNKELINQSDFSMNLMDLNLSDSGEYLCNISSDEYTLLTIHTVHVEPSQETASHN

T4: SLAMF7
T4 construct: coated protein in the ELISA; also called SLAMF7-StrepTag
T4 chain: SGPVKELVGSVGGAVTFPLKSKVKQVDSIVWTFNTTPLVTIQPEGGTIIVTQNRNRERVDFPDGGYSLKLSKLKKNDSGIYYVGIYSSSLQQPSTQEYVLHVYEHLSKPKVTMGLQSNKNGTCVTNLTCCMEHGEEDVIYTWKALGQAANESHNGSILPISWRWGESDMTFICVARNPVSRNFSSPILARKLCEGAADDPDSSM

T5: CADM1-His (Acro Biosystems) (human, UniProt Q9BY67 45-374)
T5 construct: Bought; also called CADM1/IGSF4A; not shown: His tag of the bought protein
T5 sequence: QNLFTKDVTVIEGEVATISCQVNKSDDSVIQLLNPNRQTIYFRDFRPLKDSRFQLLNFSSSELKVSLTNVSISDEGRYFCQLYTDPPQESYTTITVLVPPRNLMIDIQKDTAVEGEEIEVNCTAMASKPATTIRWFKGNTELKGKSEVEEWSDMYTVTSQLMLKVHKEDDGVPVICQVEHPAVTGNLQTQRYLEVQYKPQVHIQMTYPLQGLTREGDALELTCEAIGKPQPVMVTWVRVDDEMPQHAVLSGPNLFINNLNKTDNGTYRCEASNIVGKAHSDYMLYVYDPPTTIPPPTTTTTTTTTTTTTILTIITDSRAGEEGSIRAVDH


Tests used:
ANXA1 = target: T1, ANXA1; assay: ELISA on coated ANXA1-His
Experimental: (§1) Recombinant purified ECDs (50-150 ng) of each putative target protein were coated, incubated with 150 ng of the indicated primary antibody, and binding was detected using a peroxidase-conjugated anti-human Fab secondary antibody. Heatmap represents averages of technical triplicates. (8B) Target validation via siRNA knockdown. H929 cells were transfected with siRNA pools targeting the putative antibody targets ICAM1, CADM1, and PTPRG. Cells were then subjected to cognate IgG binding analysis via flow cytometry. (NT, non-targeting siRNA).
(§2) ELISA ELISA was conducted as described previously. Briefly, 50-150 ng of antigen was coated overnight in half-area 96-well plates at 4° C., blocked with 3% BSA at 37° C. for 1 h, and 150 ng of chimeric rabbit/human IgG1 was added, incubating for 2 h at 37° C. […] After incubating at 37° C. for 15 min-1 h (depending on intensity of controls), data were acquired using a SpectraMax M5 plate reader (Molecular Devices).

[1] = target: T2, PTPRG-Fc (ECD of human PTPRG, aa …); assay: ELISA on coated PTPRG-Fc, 150 ng IgG1; None 0.117
Experimental: as §1, §2

PTP4A3 (PRL-3) = target: T6, PTP4A3 (PRL-3); assay: ELISA on coated His-PTP4A3, 150 ng IgG1; None 0.085
T6 construct: coated protein in the ELISA; also called His-PTP4A3 (R&D Systems)
Experimental: as §1, §2

HHLA2 (B7-H7) [2] = target: T3, HHLA2 (B7-H7); assay: ELISA on coated HHLA2-Fc, 150 ng IgG1; None 0.087
Experimental: as §1, §2

SLAMF7 = target: T4, SLAMF7; assay: ELISA on coated SLAMF7-StrepTag, 150 ng IgG1; None 0.047
Experimental: as §1, §2

HHLA2 (B7-H7) [3] = target: T3, HHLA2 (B7-H7); assay: ELISA on coated HHLA2-Fc
Experimental: as §1, §2

[4] = target: T5, CADM1-His (Acro Biosystems); assay: ELISA on coated CADM1-His, 150 ng IgG1; None 0.059
Experimental: as §1, §2

T6 sequence (chain, as listed by the source limits assumed): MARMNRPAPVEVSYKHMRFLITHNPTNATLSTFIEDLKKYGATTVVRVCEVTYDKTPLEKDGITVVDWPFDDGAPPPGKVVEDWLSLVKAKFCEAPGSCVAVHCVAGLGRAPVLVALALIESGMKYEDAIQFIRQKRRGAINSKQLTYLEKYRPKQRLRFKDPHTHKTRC

Binder	binding result (ANXA1)	ELISA Absorbance (405 nm-570 nm) [1]	ELISA Absorbance (405 nm-570 nm) (PTP4A3 (PRL-3))	ELISA Absorbance (405 nm-570 nm) (HHLA2 (B7-H7) [2])	ELISA Absorbance (405 nm-570 nm) (SLAMF7)	binding result (HHLA2 (B7-H7) [3])	ELISA Absorbance (405 nm-570 nm) [4]
TH9-0022 (antibody, human IgG1, kappa, L234A L235A, V domains shown, also called TH9-022; negative control) VH: QSLEESGGRLVTPGTPLTLTCTVSGFSLSSYAMNWVRQAPGKGLEWIGIINSYGSTYYASWAKGRFTISKTSTTVDLKITSPTTEDTATYFCARVTYDSYGYGYAPYGMDLWGPGTLVTVSS VL: LVMTQTPSSTSNAVGGTVTIKCQASQSIGNVLAWYQQKPGQPPKLLIYAASTLASGVPSRVGGSRSGTEYTLTISGVQREDAATYYCLGSDSDSDIAFGGGTELEILR	no binding (tested: 150 ng IgG1 per well)	0.106	0.092	0.086	0.052	no binding (tested: 150 ng IgG1 per well)	0.055
HW-16 chimeric rabbit-human IgG1 LA/LA/PG (antibody, V domains shown, Fc-silenced (L234A/L235A/P329G) IgG1, kappa; Alexa Fluor 647-labeled in single-step flow cytometry; Cluster C-45) VH: QSLEESGGRLVTPGTPLTLTCTASGFSLSSYAMSWVRQAPGKGLEWIGTMPTGGGTYYASWAKGRFTISKTSTTVDLQITSPTTEDTATYFCAKHWNIWGPGTLVTISS VL: DIVLTQTPSSTSTAVGDTVTINCRASQSIGRNLAWFQQKPGQPPKLLIYRASNLASGVPSRFKGSGSRTQFTLTISGVQREDAATYYCLGSYSSSDTAFGGGTELEILR	no binding (tested: 150 ng IgG1 per well)		0.105	0.092		no binding (tested: 150 ng IgG1 per well)	0.067
HW-42 chimeric rabbit-human IgG1 LA/LA/PG (antibody, V domains shown, Fc-silenced (L234A/L235A/P329G) IgG1, lambda; Alexa Fluor 647-labeled in single-step flow cytometry; Cluster C-1) VH: QSVKESEGGLFKPADTLTLTCTVSGFSLSSNEISWVRQAPGEGLEYIGIIDTGGRAYYAVWARSRSTITRNTNLNTVTLKMTSLTAADTATYFCARGGVDTEWYAFSSWGPGTLVTVPS VL: SFVLTQPASVQVNLGQTVSLTCTADTLSRRYASWYQQKPGQAPVLLIFRDTSRPSGVPDRFSGSSSGDTATLTISGAQAGDEADYYCATSDGSGSNYQYVFGGGTQLTVTG	no binding (tested: 150 ng IgG1 per well)	0.341	0.096	0.097	0.054	no binding (tested: 150 ng IgG1 per well)	0.061
HW-70 chimeric rabbit-human IgG1 LA/LA/PG (antibody, V domains shown, Fc-silenced (L234A/L235A/P329G) IgG1, lambda; Alexa Fluor 647-labeled in single-step flow cytometry; Cluster C-1) VH: QSLEESGGRLVTPGTPLTLTCTVSGFSLSSNAMSWVRQAPGKGLEWIGTIDGYGYTYYASWAKGRFTVSKTSTTVDLKITSPTTEDTATYFCAREIYLGSNFWGPGTLVTISS VL: SFVLTQPASVQVNLGQTVSLTCTADTLSRRYASWYQQKPGQAPVLLIYRDTSRPSGVPDRFSGSSSGNTATLTISGAQAGDEADYYCATADGSGSSYQFVFGGGTQLTVTG	no binding (tested: 150 ng IgG1 per well)	0.29	0.092	0.088	0.047	no binding (tested: 150 ng IgG1 per well)	0.053
HW-1 chimeric rabbit-human IgG1 LA/LA/PG (antibody, V domains shown, Fc-silenced (L234A/L235A/P329G) IgG1, lambda; Alexa Fluor 647-labeled in single-step flow cytometry; Prototype of cluster C-1) VH: QSLEESGGGLFKPTDTLTLTCTASGFSLGSSYAISWVRQAPGKELEWIGTIDSGRAYYARWAKSRSTITRNTNENTVTLKMTSLTAADTATYFCARDLIPTYSQDIWGPGTLVTISS VL: SFVLTQPASVQVNLGQTVSLTCTADTLSRRYASWYQQKPGQAPVLLIYRDTSRPSGVPDRFSGSSSGNTATLTISGAQAGDEADYYCATSDGSGNSYQYVFGGGTQLTVTS	no binding (tested: 150 ng IgG1 per well)	0.756	0.081	0.075	0.053	no binding (tested: 150 ng IgG1 per well)	0.053
HW-28 chimeric rabbit-human IgG1 LA/LA/PG (antibody, V domains shown, Fc-silenced (L234A/L235A/P329G) IgG1, lambda; Alexa Fluor 647-labeled in single-step flow cytometry; Cluster C-45) VH: QKQLVESGGRLVTPGTPLTLTCTASGFSLSSNAMSWVRQAPGEGLQWIGTISSGGSTYYASWAKGRFTISKTSTTVTLKMTSLTTEDTATYFCARGADLHRLWGPGTLVTVSS VL: SFVLTQPASVQVNLGQTVSLTCTGKPLSRSFASWYQQKPGQAPVLVIYRDTSRPSGVPDRFSGSSSGNTATLTISGAQAGDEADYYCATSDGSGSSYQYVFGGGTQLTVTG		0.121		0.122			
HW-25 chimeric rabbit-human IgG1 LA/LA/PG (antibody, V domains shown, Fc-silenced (L234A/L235A/P329G) IgG1, lambda; Alexa Fluor 647-labeled in single-step flow cytometry; Cluster C-1) VH: QSLEESGGRLVTPGTPLTLTCTVSGFSLSSYAMGWVRQAPGKGLEWIGIIDSRGSTYYATWAKGRFTISKTSTTVDLKITSPTTEDTATYFCAREDSYYYDSFNLWGPGTLVTVSS VL: SFVLTQPASVQVNLGQTVSLTCTADTLSRRYASWYQQKPGQAPVLLIYRDTSRPSGVPDRFSGSSSGNTATLTISGAQAGDEADYYCATSDGSGSSYQCVFGGGTQLTVTG	no binding (tested: 150 ng IgG1 per well)	0.784	0.079	0.066	0.054	no binding (tested: 150 ng IgG1 per well)	0.045
